From paper PMC5627591
Where two headings read alike, the source gives them in different places.

Columns and labels:
Assay in all cases: BLI
[1] = target: human IgG1 Fc-YEY variant (M252Y/N286E/N434Y) of the pH-dependent mAbs (human)
[2] = target: human IgG1 Fc-YPY variant (M252Y/V308P/N434Y) of the pH-dependent mAbs (human)
[3] = target: human IgG1 Fc-YTE variant (M252Y/S254T/T256E) of the pH-dependent mAbs (human)
[4] = target: human IgG1 Fc-YEY variant (M252Y/N286E/N434Y) of the pH-dependent mAbs (human); remark: listed apart in the source
[5] = target: human IgG1 Fc-YPY variant (M252Y/V308P/N434Y) of the pH-dependent mAbs (human); remark: listed apart in the source
[6] = target: human IgG1 wild-type (WT) Fc variant of the pH-dependent mAbs (human)
[7] = target: human IgG1 Fc-YTE variant (M252Y/S254T/T256E) of the pH-dependent mAbs (human); remark: listed apart in the source
[8] = target: human IgG1 wild-type (WT) Fc variant of the pH-dependent mAbs (human); remark: listed apart in the source

Row | Substance | Kd [1] | Kd [2] | Kd [3] | Kd [4] | Kd [5] | Kd [6] | Kd [7] | Kd [8]
1 | cyno FcRn (cynomolgus monkey neonatal Fc receptor) (from UniProt Q8SPV9 24-365) | 0.066 µM | 0.028 µM | 1.11 µM | 0.0043 µM | 0.0022 µM | 0.853 µM | 0.076 µM | –
2 | human FcRn (human neonatal Fc receptor) (from UniProt P55899 24-365) | 0.022 µM | 0.014 µM | 0.76 µM | 0.0031 µM | 0.0016 µM | 0.185 µM | 0.03 µM | > 10 µM
